# Assay results: patent US20120316071A1 (published 2012)
# T1: rHuman Erythropoietin R/Fc Chimera, CF (R&D Systems Cat#963-ER) (human, UniProt P19235 25-250)
# T1 construct: Bought recombinant protein; also called EPO R/Fc; Epo R; Fc part of the bought chimera not given
# T1 sequence (looked up): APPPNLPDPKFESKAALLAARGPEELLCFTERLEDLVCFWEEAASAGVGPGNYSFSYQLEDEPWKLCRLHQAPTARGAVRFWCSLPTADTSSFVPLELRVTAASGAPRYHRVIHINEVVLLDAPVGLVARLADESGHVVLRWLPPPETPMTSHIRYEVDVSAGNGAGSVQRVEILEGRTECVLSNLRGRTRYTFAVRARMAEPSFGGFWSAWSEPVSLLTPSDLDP
# T2: rHuman Erythropoietin R/Fc Chimera, CF (R&D Systems Cat#963-ER) (human, UniProt P19235 25-250)
# T2 construct: Bought recombinant protein; also called EPO R; EPO R/Fc; Fc part of the bought chimera not given
# T2 sequence (looked up): T1 sequence (looked up)
# B1: Fab VH6-1_IGHD3-3*01_IGHJ4*01 & V4-3_IGLJ4*01 (Fab, V domains shown)
# VH: QVQLQQSGPGLVKPSQTLSLTCAISGDSVSSNSAAWNWIRQSPSRGLEWLGRTYYRSKWYNDYAVSVKSRITINPDTSKNQFSLQLNSVTPEDTAVYYCAREYYDFWSGYYTDYFDYWGQGTLVTVSS
# VL: QPVLTQPTSLSASPGASARLTCTLRSGINLGSYRIFWYQQKPESPPRYLLSYYSDSSKHQGSGVPSRFSGSKDASSNAGILVISGLQSEDEADYYCMIWHSSASFVFGGGTQLIIL
# notes: Tested as a purified germline Fab made in E. coli; The VH was cloned into plasmid A (CH1 constant region, His6 and Flag tags) and the lambda VL into plasmid E (lambda CL)
# B2: Fab VH1-46_IGHD3-10*01_IGHJ4*01 & B3_IGKJ1*01 (Fab, V domains shown)
# VH: QVQLVQSGAEVKKPGASVKVSCKASGYTFTSYYMHWVRQAPGQGLEWMGIINPSGGSTSYAQKFQGRVTMTRDTSTSTVYMELSSLRSEDTAVYYCAREYYYGSGSYYNDYFDYWGQGTLVTVSS
# VL: not shown
# notes: Tested as a Fab made in E. coli; VH was cloned into Plasmid A (CH1 constant region, His6 and Flag tags); The kappa VL was cloned into Plasmid C (kappa CL)
# B3: Fab VH1-46_IGHD6-13*01_IGHJ4*01 & B3_IGKJ1*01 (Fab, V domains shown)
# VH: QVQLVQSGAEVKKPGASVKVSCKASGYTFTSYYMHWVRQAPGQGLEWMGIINPSGGSTSYAQKFQGRVTMTRDTSTSTVYMELSSLRSEDTAVYYCAREGYSSSWYDYFDYWGQGTLVTVSS
# VL: not shown
# notes: Germline Fab made in E. coli; VH was cloned into Plasmid A (CH1, His6 and Flag tags) and the kappa VL into Plasmid C (kappa CL)
# B4: Fab VH5-51_IGHD5-18*01>3_IGHJ4*01 G100K/G104T & V3-4_IGLJ1*01 (Fab, V domains shown)
# VH: EVQLVQSGAEVKKPGESLKISCKGSGYSFTSYWIGWVRQMPGKGLEWMGIIYPGDSDTRYSPSFQGQVTISADKSISTAYLQWSSLKASDTAMYYCARRKYSYTYDYFDYWGQGTLVTVSS
# VL: QTVVTQEPSFSVSPGGTVTLTCGLSSGSVSTSYYPSWYQQTPGQAPRTLIYSTNTRSSGVPDRFSGSILGNKAALTITGAQADDESDYYCVLYMGSGISYVFGTGTKVTVL
# notes: Tested as a Fab; The constant parts are the same as for the parent Fab (CH1 with His6/Flag tags, lambda CL); also called KT double mutant; H:KT
# Legend:
# [1] = biological target: T3, Recombinant Human DLL4 (R&D Systems Cat#1506-D4/CF) (human, UniProt Q9NR61 27-524); assay: MSD Multispot ECL, antigen spotted on plate, Fab at 120 nM; blank spot 363
# T3 construct: Bought recombinant protein; also called rHuman DLL4; delta-like protein 4
# [2] = biological target: T4, rHuman Notch-1/Fc Chimera, CF (R&D Systems Cat#3647-TK) (human, UniProt P46531 19-526); assay: as above
# T4 construct: Bought Fc chimera; Fc part of the bought chimera not given
# [3] = biological target: T5, rHuman CD44/Fc Chimera, CF (R&D Systems Cat#3660-CD) (human, UniProt P16070 21-220); assay: as above
# T5 construct: Bought Fc chimera; Fc part of the bought chimera not given
# [4] = biological target: T6, rHuman P-Cadherin/Fc Chimera, CF (R&D Systems Cat#861-PC) (human, UniProt P22223 108-654); assay: as above
# T6 construct: Bought Fc chimera; Fc part of the bought chimera not given
# [5] = biological target: T7, rHuman ErbB2/Fc Chimera, CF (R&D Systems Cat#1129-ER) (human, UniProt P04626 23-652); assay: MSD multispot ECL, antigen spotted on plate, Fab 11 nM; blank spot 212
# T7 construct: Bought from R&D Systems; also called human epidermal growth factor 2 receptor (ErbB2); not shown: Fc of the bought chimera
# [6] = biological target: T8, rHuman HGF R/c-MET/Fc Chimera, CF (R&D Systems Cat#358-MT/CF) (human, UniProt P08581 25-932); assay: as above
# T8 construct: Bought from R&D Systems; also called HGF R/Fc; hepatocyte growth factor receptor (HGF R/c-Met); not shown: Fc of the bought chimera
# [7] = biological target: T9, Recombinant Human DLL4 (R&D Systems Cat#1506-D4/CF) (human, UniProt Q9NR61 27-524); assay: Multispot ECL (MSD), antigen spotted on plate, Fab 15.6 nM; blank spot 294
# T9 construct: Bought recombinant protein; also called rHuman DLL4; delta-like protein 4
# [8] = biological target: T10, rHuman Notch-1/Fc Chimera, CF (R&D Systems Cat#3647-TK) (human, UniProt P46531 19-526); assay: as above
# T10 construct: Bought recombinant protein; Fc part of the bought chimera not given
# [9] = biological target: T11, rHuman IGF-1 sR, CF (R&D Systems Cat#391-GR) (human, UniProt P08069 31-932); assay: as above
# T11 construct: Bought recombinant soluble receptor; also called insulin-like growth factor-1 soluble receptor
# [10] = biological target: T1, rHuman Erythropoietin R/Fc Chimera, CF …; assay: as above
# [11] = biological target: T2, rHuman Erythropoietin R/Fc Chimera, CF …; assay: ECL multispot (MSD) assay, spotted antigen; Fab 2.00 (head prints uM)
# [12] = biological target: T12, Recombinant Human DLL4 (R&D Systems Cat#1506-D4/CF) (human, UniProt Q9NR61 27-524); assay: as above
# T12 construct: Bought recombinant protein; also called delta-like protein 4
# [13] = biological target: T13, rHuman ErbB2/Fc Chimera, CF (R&D Systems Cat#1129-ER) (human, UniProt P04626 23-652); assay: as above
# T13 construct: Bought recombinant protein; Fc part of the bought chimera not given
# [14] = biological target: T14, rHuman EGF R/Fc Chimera, CF (R&D Systems Cat#344-ER) (human, UniProt P00533 25-645); assay: as above
# T14 construct: Bought recombinant protein; Fc part of the bought chimera not given
# [15] = biological target: T15, rHuman HGF R/c-MET/Fc Chimera, CF (R&D Systems Cat#358-MT/CF) (human, UniProt P08581 25-932); assay: as above
# T15 construct: Bought recombinant protein; also called HGF R/Fc; Fc part of the bought chimera not given
# [16] = biological target: T16, rHuman Notch-1/Fc Chimera, CF (R&D Systems Cat#3647-TK) (human, UniProt P46531 19-526); assay: as above
# T16 construct: Bought recombinant protein; Fc part of the bought chimera not given
# [17] = biological target: T17, rHuman CD44/Fc Chimera, CF (R&D Systems Cat#3660-CD) (human, UniProt P16070 21-220); assay: as above
# T17 construct: Bought recombinant protein; Fc part of the bought chimera not given
# [18] = biological target: T18, rHuman IGF-1 sR, CF (R&D Systems Cat#391-GR) (human, UniProt P08069 31-932); assay: as above
# T18 construct: Bought soluble receptor; The column head prints only 'IGF-1'; also called insulin-like growth factor-1 soluble receptor
# [19] = biological target: T19, rHuman P-Cadherin/Fc Chimera, CF (R&D Systems Cat#861-PC) (human, UniProt P22223 108-654); assay: as above
# T19 construct: Bought recombinant protein; Fc part of the bought chimera not given
binder,measurement,setting,value
B1,ECL signal,[1],938
same,ECL signal,[2],472
same,ECL signal,[3],442
same,ECL signal,[4],450
B2,ECL signal,[5],216
same,ECL signal,[6],268
B3,ECL signal,[7],525
same,ECL signal,[8],418
same,ECL signal,[9],349
same,ECL signal,[10],8360
B4,ECL signal/noise ratio,[11],4.1
same,ECL signal/noise ratio,[12],72.7
same,ECL signal/noise ratio,[13],3.2
same,ECL signal/noise ratio,[14],3.8
same,ECL signal/noise ratio,[15],6
same,ECL signal/noise ratio,[16],1.9
same,ECL signal/noise ratio,[17],3.5
same,ECL signal/noise ratio,[18],3.7
same,ECL signal/noise ratio,[19],4.3
